Source: patent US20250243279A1 (published 2025)

Experiments:
MICB = biological target: T1, MICB (human, UniProt Q29980 23-383); assay: Carterra LSA SPR
T1 chain: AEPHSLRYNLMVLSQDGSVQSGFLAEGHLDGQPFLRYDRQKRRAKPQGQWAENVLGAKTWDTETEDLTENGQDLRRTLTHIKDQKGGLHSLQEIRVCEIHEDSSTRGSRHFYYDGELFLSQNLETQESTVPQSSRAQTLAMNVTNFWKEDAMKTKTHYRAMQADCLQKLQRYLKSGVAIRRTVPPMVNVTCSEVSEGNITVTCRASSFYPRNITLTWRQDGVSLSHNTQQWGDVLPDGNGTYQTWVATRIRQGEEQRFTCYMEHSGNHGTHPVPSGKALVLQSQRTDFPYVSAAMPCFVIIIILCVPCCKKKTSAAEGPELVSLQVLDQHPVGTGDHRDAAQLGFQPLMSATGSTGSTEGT

MICA = biological target: T2, MICA (human, UniProt Q29983 24-383); assay: Carterra LSA SPR
T2 chain: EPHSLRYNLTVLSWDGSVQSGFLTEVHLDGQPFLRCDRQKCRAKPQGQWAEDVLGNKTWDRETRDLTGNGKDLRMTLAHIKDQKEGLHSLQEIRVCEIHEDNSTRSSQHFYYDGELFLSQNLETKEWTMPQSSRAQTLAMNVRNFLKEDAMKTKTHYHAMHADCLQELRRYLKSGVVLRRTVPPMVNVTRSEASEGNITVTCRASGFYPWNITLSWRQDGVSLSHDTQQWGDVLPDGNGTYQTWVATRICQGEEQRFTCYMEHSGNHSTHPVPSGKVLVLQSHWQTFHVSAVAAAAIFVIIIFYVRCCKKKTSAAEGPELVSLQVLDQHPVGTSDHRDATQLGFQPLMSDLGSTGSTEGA

cynoMICA = assay: Carterra LSA SPR
CD16 = CD16 (UniProt P08637 17-208)
Sequence of CD16 (P08637 17-208): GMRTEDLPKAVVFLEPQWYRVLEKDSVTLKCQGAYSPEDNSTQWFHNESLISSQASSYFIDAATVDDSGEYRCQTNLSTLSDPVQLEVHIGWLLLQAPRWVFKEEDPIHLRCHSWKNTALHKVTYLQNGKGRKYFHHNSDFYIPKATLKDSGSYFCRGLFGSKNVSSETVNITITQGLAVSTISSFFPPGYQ

1C8 = assay: Carterra LSA SPR
1B11-2 = assay: Carterra LSA SPR
1H7 = assay: Carterra LSA SPR
1D8 = assay: Carterra LSA SPR
1B6 = assay: Carterra LSA SPR
1D7 = assay: Carterra LSA SPR
1E1 = assay: Carterra LSA SPR
1D9 = assay: Carterra LSA SPR
1A2 = assay: Carterra LSA SPR

B1: D94837_1E11_1 [MICA/B]_H0_D94837_1E11_1 [MICA/B]_L0 (antibody, V domains shown)
VH: EIQLQQSGPELVKPGASVKVSCKASGYAFTSYNMYWVKQSHGKSLEWIGYIDPYNGGTIYNQKFKGKATLTVDKSSSTAYMLLNSLTSEDSAVYYCARVGDAYPFAYWGQGTLVTVSA
VL: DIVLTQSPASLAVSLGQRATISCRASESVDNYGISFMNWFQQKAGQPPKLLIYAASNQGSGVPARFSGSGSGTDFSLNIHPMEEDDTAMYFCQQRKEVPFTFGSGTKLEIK
MICB
  Kd: 52.8 nM
MICA
  Kd: 40.3 nM

B2: 1E11-1 (antibody, V domains shown)
VH: EIQLQQSGPELVKPGASVKVSCKASGYAFTSYNMYWVKQSHGKSLEWIGYIDPYNGGTIYNQKFKGKATLTVDKSSSTAYMLLNSLTSEDSAVYYCARVGDAYPFAYWGQGTLVTVSA
VL: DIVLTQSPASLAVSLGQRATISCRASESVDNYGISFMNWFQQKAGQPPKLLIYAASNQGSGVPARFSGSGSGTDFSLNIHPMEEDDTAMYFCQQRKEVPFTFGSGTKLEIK
cynoMICA
  Kd: 19.6 nM

B3: D99136_2C11 [MICA/B]_H0_D99136_2C11 [MICA/B]_L0 (antibody, V domains shown)
VH: DVQLQESGPGLVKPSQSLSLTCSVTGYSITSGYNWDWIRHSPGNKLEWMGYISYDGSTNYNPSLKNRISITRDTSKNQFFLKLNSVTTEDTATYYCASSYYRYFDYWGQGTTLTVSS
VL: DVQMTQTTSSLSASLGDRVTISCSASQGISNYLNWFQQKPDGTVKLLIYYTSSLHSGVPSRFSGSGSGTDYSLTISNLEPEDIATYYCQQYTKLPWTFGGGTELEIK
MICB
  Kd: 2.59 nM
MICA
  Kd: 17.8 nM

B4: 2E12 (antibody, V domains shown)
VH: QVQLQQSGAELVRPGTSVKVSCKASGYAFTNYLIEWVKQRPGQGLEWIGGINPGSGSTNYNEKFKGKATLTADKSSSTAYMQLSTLTFDDSAVYFCARLGGNYVDYWGQGTTLTVSS
VL: DIQMTQSPASLSASVGETVTITCRASGNIHNYLAWYQQKQGKSPQLLVYNAKTLADGVPSRFSGSGSGTQYSLKINSLQPEDFGSYYCQHFWSTPRTFGGGTKLEIK
MICB
  Kd: 4.68 nM
MICA
  Kd: 16.7 nM

B5: 2E5 (antibody, V domains shown)
VH: EVKLVESGGGLVQPGGSLKLSCATSGFTFSDYYMFWVRQTPEKRLEWVAYISEGGGSTYYPDTIKGRFTISRDNAKNTLYLQMSRLRSEDTAMYYCVRQRGAYNRYDDGRGFAYWGQGTLVTVSA
VL: DVLMTQTPLSLPVSLGDQASISCRSSQSIVHSNGNTYLEWYLQKPGQSPKLLIYKVSNRFSGVPDRLSGSGSGTDFTLKISRGEAEDLGVYYCFQGSHVPWTFGGGTKLEIK
MICB
  Kd: 0.807 nM
MICA
  Kd: 0.599 nM

B6: XENP41023 (antibody)
heavy: EVQLLESGGGLVQPGGSLRLSCAVSGFSLSSYGVIWVRQAPGKGLEYVSWVSSGGSTNYASSVKGRFTISRDTSKNTVYLQMNSLRAEDTAVYFCARGATNSGTDIWGPGTLVTVSSASTKGPSVFPLAPSSKSTSGGTAALGCLVKDYFPEPVTVSWNSGALTSGVHTFPAVLQSSGLYSLSSVVTVPSSSLGTQTYICNVNHKPSDTKVDKKVEPKSCDKTHTCPPCPAPELLGGPDVFLFPPKPKDTLMISRTPEVTCVVVDVSHEDPEVKFNWYVDGVEVHNAKTKPREEEYNSTYRVVSVLTVLHQDWLNGKEYKCKVSNKALPAPIEKTISKAKGQPREPQVYTLPPSREEMTKNQVSLTCDVSGFYPSDIAVEWESDGQPENNYKTTPPVLDSDGSFFLYSKLTVDKSRWEQGDVFSCSVMHEALHNHYTQKSLSLSPGK
scFv-Fc: EVQLLESGGGLVQPGGSLRLSCAVSGFSLSSYGVIWVRQAPGKGLEYVSWVSSGGSTNYASSVKGRFTISRDTSKNTVYLQMNSLRAEDTAVYFCARGATNSGTDIWGPGTLVTVSSGKPGSGKPGSGKPGSGKPGSDIVMTQSPSSLSASVGDRVTITCRASQSINSWLSWYQQKPGKPPKLLIYGASNLASGVPSRFKGSGSGTDFTLTISSLQPEDFATYYCQNNYGIIAAGATFGGGTKVEIKEPKSSDKTHTCPPCPAPELLGGPDVFLFPPKPKDTLMISRTPEVTCVVVDVSHEDPEVKFNWYVDGVEVHNAKTKPREEQYNSTYRVVSVLTVLHQDWLNGKEYKCKVSNKALPAPIEKTISKAKGQPREPQVYTLPPSREQMTKNQVKLTCLVKGFYPSDIAVEWESNGQPENNYKTTPPVLDSDGSFFLYSKLTVDKSRWQQGNVFSCSVMHEALHNHYTQKSLSLSPGK
light: DIVMTQSPSSLSASVGDRVTITCRASQSINSWLSWYQQKPGKPPKLLIYGASNLASGVPSRFKGSGSGTDFTLTISSLQPEDFATYYCQNNYGIIAAGATFGGGTKVEIKRTVAAPSVFIFPPSDEQLKSGTASVVCLLNNFYPREAKVQWKVDNALQSGNSQESVTEQDSKDSTYSLSSTLTLSKADYEKHKVYACEVTHQGLSSPVTKSFNRGEC
CD16
  Kd: 102 nM

B7: XENP41024 (antibody)
heavy: EVQLLESGGGLVQPGGSLRLSCAVSGFSLSSYGVIWVRQAPGKGLEYVSWVSSGGSTNYASSVKGRFTISRDTSKNTVYLQMNSLRAEDTAVYFCARGATNSGTDIWGPGTLVTVSSASTKGPSVFPLAPSSKSTSGGTAALGCLVKDYFPEPVTVSWNSGALTSGVHTFPAVLQSSGLYSLSSVVTVPSSSLGTQTYICNVNHKPSDTKVDKKVEPKSCDKTHTCPPCPAPELLGGPSVFLFPPKPKDTLMISRTPEVTCVVVDVSHEDPEVKFNWYVDGVEVHNAKTKPREEEYNSTYRVVSVLTVLHQDWLNGKEYKCKVSNKALPAPEEKTISKAKGQPREPQVYTLPPSREEMTKNQVSLTCDVSGFYPSDIAVEWESDGQPENNYKTTPPVLDSDGSFFLYSKLTVDKSRWEQGDVFSCSVMHEALHNHYTQKSLSLSPGK
scFv-Fc: EVQLLESGGGLVQPGGSLRLSCAVSGFSLSSYGVIWVRQAPGKGLEYVSWVSSGGSTNYASSVKGRFTISRDTSKNTVYLQMNSLRAEDTAVYFCARGATNSGTDIWGPGTLVTVSSGKPGSGKPGSGKPGSGKPGSDIVMTQSPSSLSASVGDRVTITCRASQSINSWLSWYQQKPGKPPKLLIYGASNLASGVPSRFKGSGSGTDFTLTISSLQPEDFATYYCQNNYGIIAAGATFGGGTKVEIKEPKSSDKTHTCPPCPAPELLGGPSVFLFPPKPKDTLMISRTPEVTCVVVDVSHEDPEVKFNWYVDGVEVHNAKTKPREEQYNSTYRVVSVLTVLHQDWLNGKEYKCKVSNKALPAPEEKTISKAKGQPREPQVYTLPPSREQMTKNQVKLTCLVKGFYPSDIAVEWESNGQPENNYKTTPPVLDSDGSFFLYSKLTVDKSRWQQGNVFSCSVMHEALHNHYTQKSLSLSPGK
light: DIVMTQSPSSLSASVGDRVTITCRASQSINSWLSWYQQKPGKPPKLLIYGASNLASGVPSRFKGSGSGTDFTLTISSLQPEDFATYYCQNNYGIIAAGATFGGGTKVEIKRTVAAPSVFIFPPSDEQLKSGTASVVCLLNNFYPREAKVQWKVDNALQSGNSQESVTEQDSKDSTYSLSSTLTLSKADYEKHKVYACEVTHQGLSSPVTKSFNRGEC
CD16
  Kd: 120 nM

B8: huMICB (ligand)
chain: AEPHSLRYNLMVLSQDGSVQSGFLAEGHLDGQPFLRYDRQKRRAKPQGQWAENVLGAKTWDTETEDLTENGQDLRRTLTHIKDQKGGLHSLQEIRVCEIHEDSSTRGSRHFYYDGELFLSQNLETQESTVPQSSRAQTLAMNVTNFWKEDAMKTKTHYRAMQADCLQKLQRYLKSGVAIRRTVPPMVNVTCSEVSEGNITVTCRASSFYPRNITLTWRQDGVSLSHNTQQWGDVLPDGNGTYQTWVATRIRQGEEQRFTCYMEHSGNHGTHPVPSGKALVLQSQRTDFPYVSAAMPCFVIIIILCVPCCKKKTSAAEGPELVSLQVLDQHPVGTGDHRDAAQLGFQPLMSATGSTGSTEGT
1C8
  Kd: 7.72 nM
1B11-2
  Kd: 1.11 nM
1H7
  Kd: 254 nM
1D8
  Kd: 4.5 nM
1B6
  Kd: 1.05 nM
1D7
  Kd: 1.47 nM
1E1
  Kd: 2.23 nM
1D9
  Kd: 0.453 nM
1A2
  Kd: 0.181 nM

B9: 2F7 (antibody, V domains shown)
VH: QVHLKQSGAELVRPGASVKLSCKASGYTFTDYYIDWMNQRPGQGLEWIARIYPGSGNSYYNEKFKGKATLTAEKSASTAHMQLSSLTSEDSAVYFCAREGPTGVAPHWYFDVWGTGTTVTVSS
VL: DIVMSQSPSSLSSYLGDRVTISCRASQDIGNYLNWYQQKPDGTVKLLIYSTSRLHSGVPSRFSGSGSGTDYSLTISNLEQEDVATYFCQQGNTLPWTFGGGTKLEIK
MICB
  Kd: 9.77 nM
MICA
  Kd: 42.4 nM

B10: D103388_1C7 [MICA/B]_H0_D103388_1C7 [MICA/B]_L0 (antibody, V domains shown)
VH: QVQLRQSGPGLGQPSQSLSITCTVFGFSLTNYGVHWVRQSPGKGLEWLGMIWNDGFTDFNAAFISRLSISKDNSKSQVFFKMNSLQPSDTAIYYCASPYFHYAMDYWGQGTSVTVSS
VL: QIVLTQSPAIMSASLGERVTMTCTASSSVSSSYLHWYQQKPGSSPKLWIYSTSNLASGVPARFSGSGSGTSYSLTISSMEAEDAATYYCHQYHRSPFTFGSGTKLEIK
MICB
  Kd: 2.27 nM
MICA
  Kd: 22.9 nM

B11: 1C7 (antibody, V domains shown)
VH: QVQLRQSGPGLGQPSQSLSITCTVFGFSLTNYGVHWVRQSPGKGLEWLGMIWNDGFTDFNAAFISRLSISKDNSKSQVFFKMNSLQPSDTAIYYCASPYFHYAMDYWGQGTSVTVSS
VL: QIVLTQSPAIMSASLGERVTMTCTASSSVSSSYLHWYQQKPGSSPKLWIYSTSNLASGVPARFSGSGSGTSYSLTISSMEAEDAATYYCHQYHRSPFTFGSGTKLEIK
cynoMICA
  Kd: 23.8 nM
